± gives the uncertainty stated by the source.

This data set can be described thus: amyloid nucleation score (Sup35N fusion, yeast selection) (log enrichment); library NNK3; higher = more nucleation; inactive = no reads after selection. The method, boiled down: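 The nucleation score is a DiMSum log enrichment of output over input reads, centred on the mode score of non-aggregating sequences. Sequences under 100 input reads were excluded, and reads came from Illumina sequencing of plasmid inserts. Psi-negative yeast expressing Sup35N fused to peptides of 20 random codons were induced with 100 μM copper sulfate for 24 hours and grown 7 days at 30°C on medium lacking adenine and uracil. Random libraries had three technical output replicates.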
Turning to FQRVCYHVWSTKN, the amyloid nucleation score result is “inactive”.

In the case of FQVEKQF, the amyloid nucleation score result was “inactive”.

In the case of FRLLLSKMAYFRADMTYDDF, the amyloid nucleation score result was “inactive”.

FRNRGLNSNMNYSSFNVQSM: the amyloid nucleation score is -0.124 ± 0.52.

Take FRNSGTNACIL: the amyloid nucleation score entry is “inactive”.

FRNWIWVLYEV: the amyloid nucleation score entry is “inactive”.

Take FRRSVK: the amyloid nucleation score entry was “inactive”.

For the substance FRSGSIDCSKLWILFY, the amyloid nucleation score result was “inactive”.

As for FRSVVWFCGRVLQTGCCGLN, the amyloid nucleation score result is “inactive”.

Consider FRVKFIMCRHLSPNV, for which the amyloid nucleation score was found to be 0.682 ± 0.2.

For FRVNKRHQYEEHVLLENLVF, the amyloid nucleation score entry is “inactive”.

For the substance FSASSISDKIFSMEYCTTWV, the amyloid nucleation score result is “inactive”.

Consider FSCSNSLTMVFVEDFNHATY, for which the amyloid nucleation score result is “inactive”.

FSDRRSINPELEF: the amyloid nucleation score result is “inactive”.

In the case of FSFQQSWVSY, the amyloid nucleation score entry was “inactive”.

In turn, FSGGCSVYSMQLFLS had an amyloid nucleation score of 1.43 ± 0.11.

Consider FSMSWTVDMKE, for which the amyloid nucleation score result was “inactive”.

Consider FSPVSQYWMKGFTYTGNRAR, for which the amyloid nucleation score result is “inactive”.

As for FSQIPRYISNTKRWLWDYVN, the amyloid nucleation score result is “inactive”.

In turn, FSRLFCNSALCIMRFVNTSS gave an amyloid nucleation score of 1.52 ± 0.088.

For the substance FSVDYQHRCQGQYPYIWYSN, the amyloid nucleation score entry is “inactive”.

For the substance FSWRCCFHKNNDCAKTILMF, the amyloid nucleation score result is “inactive”.

For FSYAFWVKIIIVFRRFITRK, the amyloid nucleation score entry is “inactive”.

For FTLFIQVV, the amyloid nucleation score result was “inactive”.

In the case of FTMASLRIKDIFWLLTNLTW, the amyloid nucleation score result was “inactive”.

Take FTNNCYHLAMY: the amyloid nucleation score was -0.456 ± 0.74.

As for FTQSTCSSHSVLFLMDVTRG, the amyloid nucleation score entry is “inactive”.

On to FTSGTMVFTRLFRSNQQWWS, for which the amyloid nucleation score was 1.53 ± 0.13.

Take FTSNAESTLWTRPRNYRNVS: the amyloid nucleation score entry was “inactive”.

Take FTSVMKNNV: the amyloid nucleation score entry was “inactive”.

Consider FTWRRFRVKSYYDYFASLGV, for which the amyloid nucleation score result was “inactive”.

For FVAHCWQSIY, the amyloid nucleation score entry was “inactive”.

For FVASHLVVAKGVKASVRKFY, the amyloid nucleation score stood at 1.31 ± 0.089.

As for FVDGVSYGTGTSSYKRTELY, the amyloid nucleation score result was “inactive”.

For FVDLIRLCMCFVRMSQSLRT, the amyloid nucleation score entry was “inactive”.

For FVIVYAMCKLYLMEKMRLIS, the amyloid nucleation score entry was “inactive”.

Take FVLVHSFLECHYIHVTTERL: the amyloid nucleation score entry is “inactive”.

Substance FVNVKFQTLCNYIWCTSPYE had an amyloid nucleation score of 2.9 ± 0.06.

Regarding FVRDRFTIMFEWIAVLRLEL, the amyloid nucleation score result is “inactive”.

FVRVALMYFVLKLTSRYKRN: the amyloid nucleation score entry is “inactive”.

Turning to FVSIWEHNSIVRRCGVRLDR, the amyloid nucleation score result was “inactive”.

For the substance FVSRGKLLPNAPGFMWFLLR, the amyloid nucleation score is -0.533 ± 1.9.

FVVIAYTEDTGDYRMVLTQW: the amyloid nucleation score result was “inactive”.

On to FVVSLQYMCQSRYISPCTPI, for which the amyloid nucleation score entry is “inactive”.

Consider FVYQYYV, for which the amyloid nucleation score result was “inactive”.

In the case of FWFHLADMVECKCIDVLYYL, the amyloid nucleation score result was “inactive”.

As for FWFYATLMGEQDK, the amyloid nucleation score was -0.331 ± 0.9.

Take FWKCWAVPDVCFYVWRSGCF: the amyloid nucleation score result is “inactive”.

As for FWLRNHFHSIAGICMFVGYW, the amyloid nucleation score entry was “inactive”.

In the case of FWLSHQNDDVYTFMPLSCSS, the amyloid nucleation score entry is “inactive”.

For the substance FWSDFYPHVLIRWFRSMVRS, the amyloid nucleation score result was “inactive”.

In the case of FWTCTSSPVLMRWRRSGFNV, the amyloid nucleation score entry was “inactive”.

As for FWTSLPFVGHNNISCRLPTP, the amyloid nucleation score result was “inactive”.

For the substance FYFDARRSITLSNSNVVKLW, the amyloid nucleation score is 1.93 ± 0.08.

For the substance FYITFFECD, the amyloid nucleation score entry is “inactive”.

For the substance FYIYP, the amyloid nucleation score entry was “inactive”.

Regarding FYIYWLFPIIVSFDYVFSGL, the amyloid nucleation score entry was “inactive”.

Regarding FYKMVGVRYGC, the amyloid nucleation score result was “inactive”.

FYKRLSMSMIWFLLYLCTDM: the amyloid nucleation score entry is “inactive”.

Turning to FYLFIVVRMVVLVTDVIVVG, the amyloid nucleation score entry is “inactive”.

For FYLKLMSLVMSMDIMLTSLC, the amyloid nucleation score entry was “inactive”.

FYMSNDCP: the amyloid nucleation score result was “inactive”.

On to FYSIPMLRLVVNNVLKLTAI, for which the amyloid nucleation score result was “inactive”.

FYSLNSFSFYASRVITDNRV registered an amyloid nucleation score of 1.09 ± 0.13.

As to FYSSACVRPVVRYCCVMCDS, the amyloid nucleation score entry is “inactive”.

Consider FYVLHPCAPFVFPHQTTNIT, for which the amyloid nucleation score entry is “inactive”.

As for FYVNPITEGMA, the amyloid nucleation score entry was “inactive”.

With FYWGAFNPYFVLIGILAYYT, the amyloid nucleation score result is “inactive”.

For FYYNVRLRRAGWAYRITWTT, the amyloid nucleation score result was “inactive”.

Turning to FYYRSFCRNGRRH, the amyloid nucleation score result was “inactive”.

In the case of GAFSYEVFPTGRPLFKTGGH, the amyloid nucleation score result was “inactive”.

Regarding GAHFWKNGVGRWLPRNC, the amyloid nucleation score result was “inactive”.

On to GALSYKSKSWRS, for which the amyloid nucleation score result was “inactive”.

For GAQSSTEIAQFYKNGMTSNQ, the amyloid nucleation score result is “inactive”.

As to GASMLGAIKGYSTSERISLD, the amyloid nucleation score was 0.175 ± 0.45.

As to GAYSDMTNKIWVPDNLLLL, the amyloid nucleation score result is “inactive”.

For the substance GAYVKPNEWCEGFENSSFEV, the amyloid nucleation score entry was “inactive”.

With GCARLAIMSKLPSCW, the amyloid nucleation score result was “inactive”.

With GCERMFIMVYSL, the amyloid nucleation score entry is “inactive”.

Consider GCFILLNWVMQGKLAYTSLI, for which the amyloid nucleation score result was “inactive”.

In the case of GCFLNNMLIGF, the amyloid nucleation score result is “inactive”.

Regarding GCFVNN, the amyloid nucleation score result is “inactive”.

As for GCKRVVTTV, the amyloid nucleation score was -0.606 ± 0.93.

For the substance GCKWWYSVFREWKSPLSGGV, the amyloid nucleation score result was “inactive”.

As to GCKYSATTAHCADKSVPVTG, the amyloid nucleation score entry is “inactive”.

In the case of GCLQTIADWFNFSNMN, the amyloid nucleation score result was “inactive”.

As for GCNEHI, the amyloid nucleation score entry was “inactive”.

For the substance GCNYTVSTYILRVSDFTYYM, the amyloid nucleation score was -0.585 ± 0.76.

Turning to GCRLPSWMYLVGELISFLSG, the amyloid nucleation score result was “inactive”.

In turn, GCSTINALCGHLDVVVCIAG displayed an amyloid nucleation score of 1.64 ± 0.094.

Turning to GCYIVM, the amyloid nucleation score result is “inactive”.

For the substance GCYWSRLGVDHRMPMFIARD, the amyloid nucleation score entry is “inactive”.

As to GDLVLASAGYLVFGYLL, the amyloid nucleation score result is “inactive”.

Consider GDTRF, for which the amyloid nucleation score result was “inactive”.

Regarding GEDIL, the amyloid nucleation score result is “inactive”.

In turn, GENIEYMF came in with an amyloid nucleation score of 0.025 ± 0.31.

As for GERVSSESGRMPLPLCCYLV, the amyloid nucleation score result was “inactive”.

On to GESLQLECLYFTFIKMYVSL, for which the amyloid nucleation score result is “inactive”.

Consider GEWSNLSNCTVNNVSRSGCS, for which the amyloid nucleation score result was “inactive”.

Consider GEYFCRNLNHID, for which the amyloid nucleation score result was “inactive”.

As to GFFCIYWGHWGFSES, the amyloid nucleation score result is “inactive”.

For GFFSLYVVE, the amyloid nucleation score entry was “inactive”.

As for GFIEW, the amyloid nucleation score result was “inactive”.

As for GFIQRKNQRGVKKCRESYYY, the amyloid nucleation score entry is “inactive”.

For GFLGCRSETFWRVVVTKRKV, the amyloid nucleation score entry was “inactive”.

For the substance GFLKCVGVRLDDSRGVVCAT, the amyloid nucleation score result is “inactive”.

For GFMGFVTSHVKMTGNMCNEI, the amyloid nucleation score result is “inactive”.

As for GFPPCSTRTIQLTWHSSNV, the amyloid nucleation score worked out at 0.37 ± 0.17.

Take GFSYM: the amyloid nucleation score result was “inactive”.

As to GFTAGRFPCGSFWLGSCCWY, the amyloid nucleation score was 0.231 ± 0.36.

Regarding GFTFNGF, the amyloid nucleation score entry is “inactive”.

Take GFTLHHLTACVIGTCVFFSP: the amyloid nucleation score was 1.93 ± 0.1.

Take GFVIYLNVALLVRSNINRVC: the amyloid nucleation score result is “inactive”.

For the substance GGDTPDDRVSNHCLYRHHHV, the amyloid nucleation score entry is “inactive”.

With GGEGLVRQA, the amyloid nucleation score result is “inactive”.

For the substance GGHENKKRYSSRTIGMCVHE, the amyloid nucleation score result is “inactive”.

GGKQCTPNDTM yielded an amyloid nucleation score of -0.186 ± 0.55.

GGLRNNPKRVIRDEDVQVHM: the amyloid nucleation score entry is “inactive”.

As for GGSARCNRLCWYAVLDVLLL, the amyloid nucleation score entry is “inactive”.

The substance GGSFKVDNPKVTRAWISFFS came in with an amyloid nucleation score of 0.802 ± 0.13.

GGSFREVVNRRTRVGEDP: the amyloid nucleation score entry was “inactive”.

Consider GHQNRTP, for which the amyloid nucleation score entry was “inactive”.

As for GICWY, the amyloid nucleation score entry was “inactive”.

With GIDDDCARHIYWGRFLIGSC, the amyloid nucleation score was -0.241 ± 1.1.

For the substance GIFCYQWWRTNPNESLAR, the amyloid nucleation score result is “inactive”.

On to GIGNCYLMLQTKIFEWFFSE, for which the amyloid nucleation score entry is “inactive”.

As to GIKNMRSISKFGWVFLIYTV, the amyloid nucleation score entry is “inactive”.

Regarding GISMRRNFSLNKCCSAQSLF, the amyloid nucleation score result is “inactive”.

Turning to GISSKRMFLSLSAFERSVYI, the amyloid nucleation score entry is “inactive”.

In the case of GISWILSVGGCTSRAWLWSW, the amyloid nucleation score result was “inactive”.

Take GITIWLYNPYFL: the amyloid nucleation score entry was “inactive”.

Source of the values: the supplement of paper PMC12042874.
